Laboratory results published in article PMC10436556, “Epigenetic control of type III interferon expression by 8-oxoguanine and its reader 8-oxoguanine DNA glycosylase1”.

Molecular target: NF-kB1/p50-p50 (recombinant) (UniProt P19838 1-433)
Assay: EMSA; without OGG1, time course; WCL/NE: 10 mM Tris-HCl pH 7.5, 1 mM EDTA, 50 mM NaCl, 2 mM DTT, 5% glycerol, 0.5% NP-40, BSA, poly(I:C), RT 20 min; His-IRF3: 10 mM Tris pH 7.5, 50 mM KCl, 1 mM DTT, 1% glycerol, 5 mM MgCl2, 0.05% NP-40, poly(I:C), RT 30 min
Conditions: protein: recombinant; chain copies: 2; label: Cy5 on 3' end of bottom strand (Methods text says 5'-Cy5); blunt

Chain of NF-kB1/p50-p50 (recombinant) (P19838 1-433): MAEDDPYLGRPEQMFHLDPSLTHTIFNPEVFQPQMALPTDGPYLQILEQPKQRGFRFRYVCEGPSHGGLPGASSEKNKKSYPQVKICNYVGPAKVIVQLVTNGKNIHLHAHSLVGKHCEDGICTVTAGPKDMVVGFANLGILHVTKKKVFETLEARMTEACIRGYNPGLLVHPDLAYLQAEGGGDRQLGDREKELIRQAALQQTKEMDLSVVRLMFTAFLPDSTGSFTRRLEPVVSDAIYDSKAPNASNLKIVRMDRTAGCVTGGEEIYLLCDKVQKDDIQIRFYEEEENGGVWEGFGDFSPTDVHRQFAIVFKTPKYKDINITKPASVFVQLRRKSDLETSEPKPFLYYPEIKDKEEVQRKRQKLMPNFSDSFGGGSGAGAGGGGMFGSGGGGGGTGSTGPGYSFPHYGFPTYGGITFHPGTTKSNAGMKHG

B1: Pr2 (dsDNA)
DNA 1: CTGTGTTTTCACTTTTCCTACATCAGCTGGGACTGCCCTTCTGTCAGGGATAA
DNA 2: TTATCCCTGACAGAAGGGCAGTCCCAGCTGATGTAGGAAAAGTGAAAACACAG
modifications: 8-oxoG at top position 48
binding result: binds
